The results in this text go back to patent US20260209316A1 (US Dept. of Health and Human Services, published 2026).

In assay [1] the target is T1, mucin domain-deleted Zaire GP (GPdMuc) (Ebola (Zaire) virus (EBOV), UniProt Q05320 33-632). Briefly: BLI competition on Zaire GPdMuc (upper table); competitor 380L.
The target of assay [2] is T1, mucin domain-deleted Zaire GP (GPdMuc). Briefly: BLI competition on Zaire GPdMuc (upper table); competitor 13C6.
The target is the same in assay [3]. Description: ELISA on coated GP.
The target is the same in assay [4]. Description: BLI competition on Zaire GPdMuc (upper table); competitor KZ52.
Assay [5] has the same target. Briefly: ELISA on coated GP. The source holds these as a separate data set.
The target is the same in assay [6]. Description: BLI competition on Zaire GPdMuc (upper table); competitor 316L.
Assay [7] has the same target. Description: BLI competition on Zaire GPdMuc (upper table); competitor 15H10.
The target in assay [8] is T2, mucin domain-deleted Zaire GP (GPdMuc) (Ebola (Zaire) virus (EBOV), UniProt Q05320 33-632).
T2 construct: also called Zaire GPdMuc; GP(Z)dMuc
Briefly: ELISA on coated GP. On the technique in general: ELISA stands for enzyme-linked immunosorbent assay.

The target of assay [9] is T3, mucin domain-deleted Sudan GP (GPdMuc) (Sudan virus (SUDV), UniProt Q7T9D9 33-632).
T3 construct: also called Sudan GPdMuc; GP(S)dMuc
Description: ELISA on coated GP.

In assay [10] the target is T3, mucin domain-deleted Sudan GP (GPdMuc). Briefly: ELISA on coated GP (EC50).

For orientation: EC50 means the concentration at which the effect is half-maximal. A high value points to a less potent agent.

Read-outs that look alike come from different tables or passages of the source.

B1: antibody mAb114 (antibody, V domains shown)
VH: EVQLVESGGGLIQPGGSLRLSCAASGFALRMYDMHWVRQTIDKRLEWVSAVGPSGDTYYADSVKGRFAVSRENAKNSLSLQMNSLTAGDTAIYYCVRSDRGVAGLFDSWGQGILVTVSS
VL: DIQMTQSPSSLSASVGDRITITCRASQAFDNYVAWYQQRPGKVPKLLISAASALHAGVPSRFSGSGSGTHFTLTISSLQPEDVATYYCQNYNSAPLTFGGGTKVEIK
With B1, the “% inhibition of binding” value in [1] came to 95%; in assay [2], 92%; in assay [4], 10%; in [6], 96%; in assay [7], 3%. The EC50 in [3] was 0.007 mg/L; in assay [5], 0.00904 mg/L.

B2: antibody 232L (antibody, V domains shown)
VH: KSQLVESGGGLVQPGGSLRLSCAASGFTFDAYAMHWVRQAPGEGLEWVTAISWSGSSTYYADSVKGRFTFSRDNAKNSLYLEMNSLRADDTAFYYCVKGGVYNWFDVWGPGVLVTVSS
VL: QSVLTQPPSVSGAPGQRVTISCTGSRSNIGGYYVSWYQQFPGTTPKLLIYQDNKRPSGVSDRFSGSKSGTSASLTITGLQTEDEADYYCLSYDSSLNGWVFGGGTRLTVL
Turning to B2, the EC50 is 0.08 mg/L in assay [8], greater than 10 mg/L in assay [9] and greater than 10 mg/L in [10].
